Source: patent US20140112931A1 (UNIVERSITE DE MONTPELLIER 1, published 2014)
Values belong to the binder of their own block, whether it stands above or below them.

Key:
[1] = molecular target: T1, HER3 receptor on cells (HER3- and HER2/HER3-transfected NIH 3T3 cells, SKBR3 cells, BxPC3 cells) (human, UniProt P21860 20-1342); experiment: flow cytometry on HER2/HER3-transfected NIH 3T3 cells
T1 construct: whole, on cells

[2] = molecular target: T2, EGFR on EGFR-transfected NIH 3T3 cells (UniProt P00533 25-1210, limits assumed); experiment: flow cytometry on EGFR-transfected NIH 3T3 cells
T2 construct: whole, on cells; also called ErbB1; HER1

[3] = molecular target: T1, HER3 receptor on cells (HER3- and …); experiment: flow cytometry on HER3-transfected NIH 3T3 cells
[4] = molecular target: T3, HER2 on HER2- or HER2/HER3-transfected NIH 3T3 cells (UniProt P04626 23-1255, limits assumed); experiment: flow cytometry on HER2-transfected NIH 3T3 cells
T3 construct: whole, on cells

[5] = molecular target: T4, human HER3-Fc protein (R&D system) (human, UniProt P21860 20-643); experiment: ELISA, HER3-Fc coated at 250 ng/ml
T4 construct: Bought (R&D system); called soluble HER3-Fc; also called soluble HER3-Fc; HER3-Fc antigen; not shown: Fc part

[6] = molecular target: T1, HER3 receptor on cells (HER3- and …); experiment: flow cytometry competition on SKBR3 cells; HRG varied; competitor: antibody 12H8-B11 at the concentration giving 50% maximal binding; antibody 12H8-B11 as the displaced probe, SKBR3 cells
Method: (§1) After one washing with PBS-1% BSA, anti-HER3 mAbs, at concentration giving 50% maximal binding, were added to each well for 1 h on ice.

[7] = molecular target: T1, HER3 receptor on cells (HER3- and …); experiment: FACS competition on SKBR3 cells: heregulin against HER3-specific positive control antibody B
Method: as §1

geometric mean (flow cytometry) [1]: 12.4
geometric mean (flow cytometry) [2]: 0.4
geometric mean (flow cytometry) [3]: 1.8
geometric mean (flow cytometry) [4]: 0.4
B1: murine anti-HER3 monoclonal antibody 9F7-F11 (antibody, V domains shown)
VH: EVKLVESGGGLVQPGGSLKLSCAASGFTFSSYTMSWVRQTPEKRLEWVAYISDGGGVTYYPDTIKGRFTISRDNAKNTLYLQMSSLKSEDTAMYYCARDRYGLFAYWGQGTLVTVSA
VL: DIVMTQSQKFMSTSVGDRVSITCKASQNVGIAVAWYQQKPGQSPKLLIYSASNRYTGVPDRFTGSGSGTDFTLTISNMQSEDLADYFCQQYSNYPYTFGGGTKLEIK

geometric mean (flow cytometry) [1]: 15.5
geometric mean (flow cytometry) [2]: 0.2
geometric mean (flow cytometry) [3]: 9.3
geometric mean (flow cytometry) [4]: 0.4
EC50 [5]: ~0.2 µg/mL
B2: anti-HER3 antibody U1-59 (Amgen/U3 Pharma-Daiichi Sankyo) (antibody, V domains shown)
VH: QVQLQQWGAGLLKPSETLSLTCAVYGGSFSGYYWSWIRQPPGKGLEWIGEINHSGSTNYNPSLKSRVTISVETSKNQFSLKLSSVTAADTAVYYCARDKWTWYFDLWGRGTLVTVSS
VL: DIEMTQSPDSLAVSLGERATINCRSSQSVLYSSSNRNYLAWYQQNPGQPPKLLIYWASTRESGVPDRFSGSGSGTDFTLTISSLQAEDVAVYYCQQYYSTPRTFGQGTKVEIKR

geometric mean (flow cytometry) [1]: 14.1
geometric mean (flow cytometry) [2]: 0.2
geometric mean (flow cytometry) [3]: 7.8
geometric mean (flow cytometry) [4]: 0.3
B3: anti-HER3 antibody Ab6 (Merrimack Pharmaceuticals) (antibody, V domains shown)
VH: EVQLLESGGGLVQPGGSLRLSCAASGFTFSHYVMAWVRQAPGKGLEWVSSISSSGGWTLYADSVKGRFTISRDNSKNTLYLQMNSLRAEDTAVYYCTRGLKMATIFDYWGQGTLVTVSS
VL: QSALTQPASVSGSPGQSITISCTGTSSDVGSYNVVSWYQQHPGKAPKLIIYEVSQRPSGVSNRFSGSKSGNTASLTISGLQTEDEADYYCCSYAGSSIFVIFGGGTKVTVL

IC50 [6]: ~2.5 nM
IC50 (read off the curve) [7]: ~2 nM
B4: heregulin (HRG) (ligand, UniProt Q02297-6 177-237, looked up)
chain: SHLVKCAEKEKTFCVNGGECFMVKDLSNPSRYLCKCPNEFTGDRCQNYVMASFYKHLGIEF
notes: also called HRG ligand
